# Laboratory results reported in IntAct's records for PubMed 16717130.
# B1: Serine/threonine-protein kinase PAK 1 (Homo sapiens), Q13153 (parent)
# chain: MSNNGLDIQDKPPAPPMRNTSTMIGAGSKDAGTLNHGSKPLPPNPEEKKKKDRFYRSILPGDKTNKKKEKERPEISLPSDFEHTIHVGFDAVTGEFTGMPEQWARLLQTSNITKSEQKKNPQAVLDVLEFYNSKKTSNSQKYMSFTDKSAEDYNSSNALNVKAVSETPAVPPVSEDEDDDDDDATPPPVIAPRPEHTKSVYTRSVIEPLPVTPTRDVATSPISPTENNTTPPDALTRNTEKQKKKPKMSDEEILEKLRSIVSVGDPKKKYTRFEKIGQGASGTVYTAMDVATGQEVAIKQMNLQQQPKKELIINEILVMRENKNPNIVNYLDSYLVGDELWVVMEYLAGGSLTDVVTETCMDEGQIAAVCRECLQALEFLHSNQVIHRDIKSDNILLGMDGSVKLTDFGFCAQITPEQSKRSTMVGTPYWMAPEVVTRKAYGPKVDIWSLGIMAIEMIEGEPPYLNENPLRALYLIATNGTPELQNPEKLSAIFRDFLNRCLEMDVEKRGSAKELLQHQFLKIAKPLSSLTPLIAAAKEATKNNH
# Variants of: B1
# Settings: with paxi_chick PXN
row,Variant,effect of a mutation on the interaction
1,L107F,increasing interaction
2,K299A,decreasing interaction
